This data set has as its system MS2 coat protein. Description: apparent KD of MS2 coat protein; designed switch direction (-1 OFF switch, 1 ON switch): 1; higher = weaker reporter binding. In outline: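 Designed RNA switches were transcribed on Illumina chips by stalled E. coli RNA polymerase and titrated with SNAP-549-labelled MS2 coat protein from 0.7 or 1.5 nM, doubling to 3 µM. Step length ran from 0.8–1.5 h at the lowest concentration to 10–20 min at the highest. The apparent KD is the median over clusters for each design, from curve-fitted normalised cluster fluorescence.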

Setting [1] is: input ligand: microRNA oligo, concentration not stated.
Setting [2] is: Eterna round: R95, input ligand: FMN 200 uM.
Setting [3] is: Eterna round: R95, input ligand: microRNA oligo, concentration not stated.
Setting [4] is: Eterna round: R95, input ligand: none.

From the supplement of paper PMC9170038 come the findings set out here.

With “AGGCUCAGACGAGGAUAUGGUCAUGGCGCUUCGGCGCAUACAUGAGGAUCACCCAUGUAGGGUGAUCAGAAGGCGUCUGAGCCA [SSNG2/9-A1] (Eterna round: R96, puzzle: Same State NG 2)”, the “apparent KD of MS2 coat protein” value runs as follows: (input ligand: FMN 200 uM) 76.8 nM; under setting [1], 255 nM; (input ligand: none) 365 nM.
For “AGGCUCAGAGCAGGAUAUACGUGGUCACAUGAGGAUCACCCAUGUCUCGAGCUUCGGCUCGAGGCGUAGAAGGGCUCUGAGCCA [SSNG2/6-B1] (Eterna round: R96, puzzle: Same State NG 2)”, in that order: 140 nM, 204 nM and 330 nM.
Turning to “AGGCUCGUGCUAGGAUAUCUAGGAUAUGGACGAGGAUUACCCGAGGAGCAUUAGCCCACCAGAGGAGAGAAGGAGCUACAUGCG [pwkr ssNG2 2F5 2FMN.12] (Eterna round: R96, puzzle: Same State NG 2)”, the “apparent KD of MS2 coat protein” value is 1320 nM (input ligand: FMN 200 uM), 509 nM under setting [1] and 513 nM (input ligand: none).
Regarding “AGGGAGGAUGCAGGAUAUACAAGACAUGAGGAUCACCCAUGUACCUUGUGGAGAAGAAAGGAGAGGUAGAAGGGUAGUGAGGAA [Default title] (Eterna round: R96, puzzle: Same State NG 2)”, the “apparent KD of MS2 coat protein” value amounted to 11.7 nM (input ligand: FMN 200 uM), 13 nM under setting [1] and 16.4 nM (input ligand: none).
For the sequence “AGGGUACAUGAGGAUCACCCAUGUGGGUCGGUCGCAGGAUAUGCCCGUGGGCGCUGGCGGGCAGAAGGGUGCCGAA [Same State1-IX] (Eterna round: R96, puzzle: Same State 1)”, the “apparent KD of MS2 coat protein” value by setting is: (input ligand: FMN 200 uM) 81.4 nM; under setting [1], 187 nM; (input ligand: none) 341 nM.
On to “AGUCCAGCCUGAGCUGGACAAAAGCAUGUACAUGAGGAUCACCCAUGUCAUGUACAAGCUUUUUGCUCGUCAAAAUA [Mat - hsa-mir-208a - Mod of JL - D29] (puzzle: Sensor for hsa-mir-208a)”, for which the “apparent KD of MS2 coat protein” value runs as follows: under setting [2], 396 nM; under setting [3], 16.5 nM; under setting [4], 480 nM.
On the same counts, the results for “AGUCCAGCCUGAGCUGGACAAAAGCAUGUACAUGAGGAUCACCCAUGUUCAUGUACAAGCUUUUUGCUCGUCUAAAA [Mat - hsa-mir-208a - Mod of JL - 50] (puzzle: Sensor for hsa-mir-208a)” are 414 nM, 16.2 nM and 540 nM.
“AGUCCAGCCUGAGCUGGACAAAAGCAUGUACAUGAGGAUCACCCAUGUUCAUGUACAAGCUUUUUGCUCGUCUUACU [salish99_208a_r3_077] (puzzle: Sensor for hsa-mir-208a)”: the “apparent KD of MS2 coat protein” value by setting is: under setting [2], 618 nM; under setting [3], 14.6 nM; under setting [4], 635 nM.
“AGUCCAGCCUGAGCUGGACAAAAGCAUGUACAUGAGGAUCACCCAUGUUCAUGUGCAAGCUUUUUGCUCGUCUUAAA [Zipper 52 - 4] (Eterna round: R96, puzzle: Sensor for hsa-mir-208a)”: the “apparent KD of MS2 coat protein” value came out at 71.5 nM (input ligand: FMN 200 uM), 10.7 nM under setting [1] and 69.8 nM (input ligand: none).
Turning to “AGUCCAGCCUGAGCUGGACAAAAGCAUGUACAUGAGGAUCACCCAUGUUCAUGUGCAAGCUUUUUGCUCGUCUUAAA [Zipper 52 - 4] (puzzle: Sensor for hsa-mir-208a)”, the “apparent KD of MS2 coat protein” value is, setting by setting: under setting [2], 64.9 nM; under setting [3], 11.4 nM; under setting [4], 71.2 nM.
Regarding “AGUCUACGGAAACGUAGACAGUGGAGCGUACAUGAGGAUCACCCAUGUCAUGUGAGAGCUACUUGUUCGUCUUGAGC [SENSOR #5] (puzzle: Sensor for hsa-mir-208a)”, the “apparent KD of MS2 coat protein” value turned out to be 26.4 nM under setting [2], 18.5 nM under setting [3] and 26.8 nM under setting [4].
Take “AGUGCAGCCUGAGCUGCACAAAAGCAUGUACAUGAGGAUCACCCAUGUCAUGUACAAGCUUUUUGCUCGUCUUAAAA [Mat - hsa-mir-208a - Mod of JL - D20] (puzzle: Sensor for hsa-mir-208a)”: the “apparent KD of MS2 coat protein” value reads like this: under setting [2], 529 nM; under setting [3], 15.4 nM; under setting [4], 688 nM.
Turning to “AUAAAACAUGAGGAUCACCCAUGUAAAAAUAUGGGAGGAUAUGCGAAAUAAAAUAAAUAAGCAGAAGGCCUAAAAA [SS! MT 19] (Eterna round: R96, puzzle: Same State 1)”, the “apparent KD of MS2 coat protein” value is, setting by setting: (input ligand: FMN 200 uM) 21.1 nM; under setting [1], 52.8 nM; (input ligand: none) 62.7 nM.
With “AUAAAACAUGAGGAUCACCCAUGUCAACAAAGUCGAGGAUAUGGGCAAAUAAAAGAAUAACCAGAAGGCGAAUAAU [salish99_ss1_r3_053] (puzzle: Same State 1)”, the “apparent KD of MS2 coat protein” value by setting is: under setting [2], 46 nM; under setting [3], 283 nM; under setting [4], 481 nM.
For “AUAAAACAUGAGGAUCACCCAUGUCAACAAAGUCGAGGAUAUGGGCAAAUUAAAUAAGAACCAGAAGGCGAAUAAU [salish99_ss1_r3_024] (puzzle: Same State 1)”, in that order: 33.3 nM, 184 nM and 232 nM.
For “AUAAAACAUGAGGAUCACCCAUGUCAACAAAGUCUAGGAUAUGGGCAAAUAAAAUAAGAACCAGAAGGCGAAUAAU [salish99_ss1_r3_051] (puzzle: Same State 1)”, the “apparent KD of MS2 coat protein” value came out at 167 nM under setting [2], 177 nM under setting [3] and 178 nM under setting [4].
In the case of “AUAAAACAUGAGGAUCACCCAUGUCUACAAAGUCGAGGAUAUGGGCAAAUAAAAUAAGAACCAGAAGGCGAAUAAU [salish99_ss1_r3_044] (puzzle: Same State 1)”, the “apparent KD of MS2 coat protein” value is 62.6 nM under setting [2], 223 nM under setting [3] and 275 nM under setting [4].
As for “AUAAACAGGCUAGGAUAUCCGGAAACUACAGGGCACAACCCUAUAGACAUGAGGAUCACCCAUGUGGAGAAGGAGCCACAUGAA [Ceesis] (Eterna round: R96, puzzle: Same State NG 2)”, the “apparent KD of MS2 coat protein” value by setting is: (input ligand: FMN 200 uM) 40.6 nM; under setting [1], 156 nM; (input ligand: none) 195 nM.
Turning to “AUAAGGCAAGCUUUUUUCUCGUUGUGUAAACAUGAGGAUCACCCAUGUGCUCGCCCUGGAUCUUUGGAUCGCAGAAA [Rarisooron] (puzzle: Sensor for hsa-mir-208a)”, the “apparent KD of MS2 coat protein” value turned out to be 104 nM under setting [2], 33.6 nM under setting [3] and 119 nM under setting [4].
For the sequence “AUAAGUUUGAUGCUCGUCCCUCCGUACAGACAUGAGGAUCACCCAUGUAGUCGGGAAGUAGCCCGGCCAGUAUGGCC [Biraza] (puzzle: Sensor for hsa-mir-208a)”, the “apparent KD of MS2 coat protein” value was 15.9 nM under setting [2], 12.6 nM under setting [3] and 15 nM under setting [4].
Consider “AUAAGUUUGAUGCUCGUCUCUCCGUACAGACAUGAGGAUCACCCAUGUAGCCGGGAAGUAGCCCGACCAGUAUGGCC [Isriinus] (puzzle: Sensor for hsa-mir-208a)”, for which the “apparent KD of MS2 coat protein” value was 72.2 nM under setting [2], 23.9 nM under setting [3] and 93.7 nM under setting [4].
Consider “AUACAUGAGGAUCACCCAUGUAAUUAAUUAACUUGUAAGAUCAAGGAUAUCAGCUCGAAUAGAGCUGAGAAGGUGAUCACAUGU [SSNG3/21-C1] (Eterna round: R96, puzzle: Same State NG 3)”, for which the “apparent KD of MS2 coat protein” value under setting [1] came out at 105 nM.
With “AUACUGUACCGAGGAUAUCCAUUUUUCUAACAUGAGGAUCACCCAUGUGAAGGGAUUGAGUUGUAGGAGAAGGCGGUAUAGUAU [JR_SSNG2_Sub062] (Eterna round: R96, puzzle: Same State NG 2)”, the “apparent KD of MS2 coat protein” value reads like this: (input ligand: FMN 200 uM) 14.8 nM; under setting [1], 11.6 nM; (input ligand: none) 21.5 nM.
For the sequence “AUAGUUGCCGAAGGAUAUGAUGAGGAUCACCCAUCAGAAGGUCGGCUAUUGGGUGGAUAUGAGGAUCACCCGUGUUCUUUGGUC (Eterna round: R96, puzzle: Same State NG 1)”, the “apparent KD of MS2 coat protein” value is, setting by setting: (input ligand: FMN 200 uM) 22.4 nM; under setting [1], 16.7 nM; (input ligand: none) 22.9 nM.
For “AUAUGAGGAGCAGGAUAUGCGGAGAAGAAAGAAGCAGAAGGGCUCAUGGGACAACAUGAGGAUCACCCAUGUUCUCCGCGAUGA [AK SSNG1-V2-3.2] (Eterna round: R96, puzzle: Same State NG 1)”, the “apparent KD of MS2 coat protein” value turned out to be 80.2 nM (input ligand: FMN 200 uM), 298 nM under setting [1] and 523 nM (input ligand: none).
As to “AUCAUAGUAGCGCAGGAUAUCCAGGUCGAGACAUGAGGAUCACCCAUGUCAGCAGGAGGACCAGAGGAGAAGGGUGAGAAAAUAA [Bimaan] (puzzle: Same State 2)”, the “apparent KD of MS2 coat protein” value under setting [2] came out at 12.5 nM, the “apparent KD of MS2 coat protein” value under setting [3] was 14.2 nM and the “apparent KD of MS2 coat protein” value under setting [4] was found to be 16.7 nM.
As for “AUCAUUUAUGCAGGAUAUGAUUAACAUGAGGAUCACCCAUGUGGUGUUGUGAGUAAGGAGAGUGAUCAGAAGGGCAUUUUUUUU [JMF's solution 72] (Eterna round: R96, puzzle: Same State NG 2)”, the “apparent KD of MS2 coat protein” value stood at 476 nM (input ligand: FMN 200 uM), 296 nM under setting [1] and 482 nM (input ligand: none).
With “AUCCUACAUGAGGAUCACCCAUGUGACGCCUCGAUAGGAUAUGCGUGUGCCUUGGCGCAUGCAGAAGGAUUGUUGC [JL Aveso mod 7] (Eterna round: R96, puzzle: Same State 1)”, under setting [1], the “apparent KD of MS2 coat protein” value turned out to be 20.3 nM.
